Drawing on US20180209962A1, “SCREENING METHOD USING INDUCED NEURONS” (KYOTO UNIVERSITY, priority 2014, published 2018), this text covers amount of tau oligomer left in the culture supernatant after immunodepletion and survival rate of human normal iNs two days after adding the immunodepleted culture supernatant for 1 substance.

The target in assay [1] is tau oligomer secreted into the culture supernatant by human tauopathy iNs (FTDP-17 patient, MAPT intron 10+14 C>T) (human) (UniProt P10636). Briefly: immunodepletion of human tauopathy iN culture supernatant with antibody-bound beads; tau oligomer measured by ELISA. For orientation: An ELISA detects its analyte on a solid surface through an enzyme-linked reagent.
tau oligomer secreted into the culture supernatant by human tauopathy iNs (FTDP-17 patient, MAPT intron 10+14 C>T) (human), sequence (P10636 other isoform, or with tags, fused parts or gaps limits assumed): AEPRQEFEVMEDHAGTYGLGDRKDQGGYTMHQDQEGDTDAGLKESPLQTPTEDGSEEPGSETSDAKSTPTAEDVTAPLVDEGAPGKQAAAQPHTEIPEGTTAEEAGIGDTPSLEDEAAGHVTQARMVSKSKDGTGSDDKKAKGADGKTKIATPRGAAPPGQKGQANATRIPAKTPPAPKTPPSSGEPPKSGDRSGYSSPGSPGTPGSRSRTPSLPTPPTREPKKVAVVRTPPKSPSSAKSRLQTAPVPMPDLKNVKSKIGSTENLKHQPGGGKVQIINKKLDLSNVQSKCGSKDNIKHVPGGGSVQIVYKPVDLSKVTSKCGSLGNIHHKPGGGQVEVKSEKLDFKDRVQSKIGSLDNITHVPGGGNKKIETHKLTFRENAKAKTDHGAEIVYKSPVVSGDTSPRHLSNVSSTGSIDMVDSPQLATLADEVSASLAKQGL
The target is the same in assay [2]. Briefly: cell-based or functional assay.

tau oligometric complex 1 antibody (TOC1 antibody), sequence (heavy): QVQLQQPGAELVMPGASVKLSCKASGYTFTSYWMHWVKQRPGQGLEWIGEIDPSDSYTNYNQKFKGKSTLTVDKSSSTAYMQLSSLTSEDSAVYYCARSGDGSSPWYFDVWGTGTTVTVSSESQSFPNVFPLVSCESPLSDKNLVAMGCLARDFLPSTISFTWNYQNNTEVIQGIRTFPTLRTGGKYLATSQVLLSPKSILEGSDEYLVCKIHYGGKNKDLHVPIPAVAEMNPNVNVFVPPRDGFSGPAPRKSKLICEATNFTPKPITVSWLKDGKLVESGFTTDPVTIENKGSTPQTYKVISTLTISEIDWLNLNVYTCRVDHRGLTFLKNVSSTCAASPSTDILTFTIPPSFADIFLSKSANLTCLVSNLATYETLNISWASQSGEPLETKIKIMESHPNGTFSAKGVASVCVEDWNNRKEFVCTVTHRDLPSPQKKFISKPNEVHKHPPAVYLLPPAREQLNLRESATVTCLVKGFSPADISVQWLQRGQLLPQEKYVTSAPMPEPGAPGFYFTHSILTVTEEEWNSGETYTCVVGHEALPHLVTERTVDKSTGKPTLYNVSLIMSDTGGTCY
tau oligometric complex 1 antibody (TOC1 antibody), sequence (light): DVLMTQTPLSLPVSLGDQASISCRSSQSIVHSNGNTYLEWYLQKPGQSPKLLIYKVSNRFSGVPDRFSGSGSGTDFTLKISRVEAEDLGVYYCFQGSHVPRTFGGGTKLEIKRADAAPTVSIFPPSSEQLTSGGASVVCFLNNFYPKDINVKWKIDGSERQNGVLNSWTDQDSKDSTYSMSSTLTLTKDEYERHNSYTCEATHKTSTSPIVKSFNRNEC

Take “tau oligometric complex 1 antibody (TOC1 antibody)”: the amount of tau oligomer left in the culture supernatant after immunodepletion in assay [1] is 27%. Besides, in assay [2], the survival rate of human normal iNs two days after adding the immunodepleted culture supernatant was found to be 130%.
